According to the DeepSol protein solubility set:

Assay: soluble on expression in E. coli; label from the status in PepcDB or PDB records

| Sequence | soluble on expression in E. coli |
| --- | --- |
| MARNNNQVKRDAAGRLFFLLDRQYRLVIQQVVALKPHVLAIAARQGMFVAKAYRFPVAAARHAWLLAALRKAGFSAAPAPMPIGRGGVVEAGGCYWLLTEYVAGARPISFAAWADAADGLHLLERYHTITANIASSKQEAMGLPRAQLYDKWRRRYEEFCRHLPVVETIMDKEDILFTLSWADYCLSTCREHAPELTADSAAIIHGDVASHNFLRTTTGQMYLIDYDAAALASPGLDYCQYANRLLPYIGWSYSTLARFAPLRRWLEKRWFLHALLFPADVFREWRSAAARRRPLVFDRKRRERFVRRLYAMLQ | not soluble |
| MARNPEEAQRVVIPLGSEEALAFLGQADRNLKRLRSLFRTYLGDEVRLVSRGEQVEVLGPPEAVEKAERALRDLLALLRQGAELDEATLEQAVRLAAEGEGLYQATEPELELQLPGRLRPKTPGQKRYVEAIARHDITFGIGPAGTGKTYLAVAMAVSHLRARRVKRIILTRPAVEAGEKLGFLPGDIQAKVDPYLRPLYDALFDMIDAERFEQYLQSGIIEVAPLAFMRGRTLNDAFIILDEAQNTTPEQMKMFLTRMGFSSKMVITGDVTQIDLPKHQRSGLVEAIRILKGIEGIAFVHFKESDVVRHPLVARIIKAYEEAERGGGGAQ | soluble |
| MARTEKKKDVVIVGLGWTGAIAGMELAAEGLEIVALERGRDQNTVPEFKYPNQIDELTYGVRLVNMQHPSQQTVTVRRNDAETALPYRSMGSFLPANGVGGAGTHWNGLLWRPQPQEIQLRSYVKERWGESIIPEGMNLMDYPVTYDELEPFFTRFDEVAGISGKAGNLKGKIQPGGNPFEGWRSSEYPMPPMPPTYDATKFRDAAQAMGYHPFPAPAGVASTAYVNPYGMQMAPCNFCGFCERFGCYQYSKSSPQTAILDALKRKPNFSYRTHAEVLRIESSADGKTATGVTYFDAAAQEEVFQPADLVILAAYQLNNVHLLLLSGIGEPYDPATNTGVTGKNYAYQMNGGVTMFFKDANFNPFIGHGSNGFCIDDFSVNQNDFGALGFIGGAYWRSGTFNGQPIRSMILPAGTPGWGAGWKKAIGQWYGHSMSIGTHGSHMAYRANHLDLDPTYKDPHGRPLMRMTFNWQDNDLRMNQYMKLKAGEVGKAMKPDLMQLGFKGPGAMYDVRPYQTTHNTGGHIMSRDPREGVVNRYCQAWDKHNVFVMGAGNFVQNTQYNPTGMVGALAYWTIHAIRTQYLRDPRPLVLEHHHHHH | not soluble |
| MARTVDLELEAQIDILRDNNKKYENILKLAQTLSTQLFQMVHTQKQLGDAFADLSLKSLELHEKFGYNADTQKLLAKNGETLLGAINFFIASVNTLVNKTIEDTLMTVKQYENARVEYDAYRTDLEELNLGPRDANTLPKIEQSQHLFQIHKEKYDKMRSDVSVKLKFLEENKVKVLRNQLVLFHSAVAAYFAGNQKQLELTLKQFHVRLKTPGVDAPSWLEEQ | soluble |
| MARVVVLGAGIGGLPTAYELKHRLGDRHEVILVSDVDRFTFIPGLVAVALGHNSLERLQVPLETVSRRHGLRWVQGKVQRLAPQEKKIYLPEQALDYDYLVIATGAELAVDLIPGLGIHSHSVCTPAHAVAAQRAWQEFLKEPRDLVVGAAPGASCFGPAYEFLFLAEHALRHHGLRDRVKITFITPEPYVGHLGIGGLANSDQLTRNLIEKRGIETITNAEITAIEPHRILLRDRPVIPFGYSMILPPFRGVPFVRASGLGNEKGFLPLLPTLQHPNYPEIYGVGISVHLPPLEVTPVPVGVPKTGQMTEEMAIAASHNIAVALGELVADPVVPTLDALCFADFGNTGIAYIAAPVIPEPPGENRRLACALQGLWVSWVKAAFERYFLLKMRWGLGVPWFEQWGLRLFFGLSLVRPLQPTVFPEQQPIMKVLEHHHHHH | not soluble |
| MARYEEVSVSGFEEFHRAVEQHNGKTIFAYFTGSKDAGGKSWCPDCVQAEPVVREGLKHISEGCVFIYCQVGEKPYWKDPNNDFRKNLKVTAVPTLLKYGTPQKLVESECLQANLVEMLFSED | soluble |
| MASEMIVDHRQKAFELLKVDAEKILKLIRVQMDNLTMPQCPLYEEVLDTQMFGLSREIDFAVRLGLVDEKDGKDLLYTLERELSALHDAFTAK | soluble |
| MASGAKKLRNVNEVLSAKKPVSILLMGTDTGALGRTFAGRTDSMMVVTINPKTNKTTITSIPRDTAVNIPGYTSYGVSKINAAYAYGKSKTAITTVQKMLNIPIDFYAIINMGGMEKIIDEVGGVTLKPTLSFSYGGYTFKKGVKTHMNGKKALAYSRMRDDDPLGDYGRQTRQRKVIMALLNKSNSISSLLNEDFISSLSKQTQTDLTFNDLTALATNYRKATQYIKTTHLQGTSETIESQSMEVASKSELQRVTNYIRKALGLSHKTTGTIAQLEHHHHHH | soluble |
| MASIKLKFRPSSVKGKKGVLSYQIIHYRLTRLIKTSYRIMPSEWDDSTGSLLISTQSECKARLLLIRDQTNWEMTRLQGIINDLERTGVEYTIDDIVASFRKIPSVESVFNFMQRCINKLERQKRGRTAEGYTSTMNSFIQFRKNEDLSFEAFDSELMEMYEAYLKEKGLVKNSTSYYMRIWRSVYNLAVEQGYTTDKKPFKHVYTGIDKTVKRAVPFKIIKMIKELDLSFEPQLELARDIFLFSFYTRGMSFIDMAHLKKSNLQNGILTYSRKKTGQRLTILWEELMQEIVDKYKDDTSEYLLPILRYCDINDRKQYKLRAKQIGRGLNKIGLRLELKAPLTFYVARHSWASIAQDRKVSTDIIREGLGHDNEKTTHIYLASISTSQIDRANQIILRGL | not soluble |
| MASKLRRYIMNTTSLSLTPLLRHSVGFERFNDLFESMRNADDSTYAYPAYDIEKHGEDSYTITMAVPGFQESDLNIMVQNDQLTVSGRIQEKETKESEYLHRSIVTRAFEQTFRLADHMQVTGAEIKNGLLSIGLIREIPEEAKPRIIPIKSISDQESNKKGKTLEPESKKKISN | not soluble |
| MASKPGERKTQILHTLAEMLEQPHAARITTSALAARMQVSEAALYRHFASKAQMFEGLIEFIETSIFTVVNQIAVSEPYGMGQARKTVAMLLAFAERNRGITRVLTGDALVTEDNRLQERINHINDRIEASLKQCLRVAVSDGALPADANIAAHASLLTHLVLGRWLRYAQSGWRVAPTTHLEEHLRLALG | not soluble |
| MASRRKRRKVNEESEIPCSPVVIFAHGAGAPSSSDWMIRWKEMLKKTLEAVEVVTFDYPYLADGKKRVAPKAEKLIEFHLNVVKETAAKFPGHPLILVGKSMGSRVSCMVSAVNEDVTVSAVICLGYPLKGAKGAIRDETLLEMGVPVMFVQGSKDPMCPLNKLEAVCNKMKAVTEVHVIDGGDHSFKIGKKHLETKELTQEEVEDVAMKAIAAFVSKSLAQSS | soluble |
| MASSLHSPGQAFRAALAKENPLQIVGAINANHALLAQRAGYQAIYLSGGGVAAGSLGLPDLGISTLDDVLTDIRRITDVCPLPLLVDADIGFGSSAFNVARTVKSIAKAGAAALHIEDQVGAKRCGHRPNKAIVSKEEMVDRIRAAVDARTDPNFVIMARTDALAVEGLEAALDRAQAYVDAGADMLFPEAITELSMYRRFADVAQVPILANITEFGATPLFTTDELRSAHVAMALYPLSAFRAMNRAAEKVYTVLRQEGTQKNVIDIMQTRNELYESINYYQFEEKLDALYRNKKSLEHHHHHH | soluble |
| MASSLNEDPEGSRITYVKGDLFACPKTDSLAHCISEDCRMGAGIAVLFKKKFGGVQELLNQQKKSGEVAVLKRDGRYIYYLDWMWSLEHHHHHH | not soluble |
| MASSSSGGAGGAGGASGAPEVKIHNVYMSNVEEEFARIRGFVEDYPYVAMDTEFPGVVATPLGTFRSKEDFNYQQVFCNVNMLKLIQVGFAMVNDKGELPPTGDVWQFNFNFSFAEDMFSHESVEMLRQAGIDFTLLQNNGIPTAVFGELLTTSGLITDPRITWLTFSSGYDFGYLLKSITLGDLPKEESTFFMCHKTLFPTSFDIKILLRTPNCASAKLKGGLQEVADQLDVKRQGVRHQAGSDALLTAATFFKIKKQFFGDNWNQIAPLICGHMFGLGSSLSLFHSSGSTSRLGDETPQGLIGVPQQA | not soluble |
| MASSSSSSEHKVFLSFRREDTGRTFVSHLYRSLDQKEIRTYKFENQQAGDGKRISSEVKQAINESRIAVVVISENYVSSVLCLDVLAKIIERLPLIKIETVFYEVDPGDLTRPTGKFADDFRRHEARENRRTVNRWRDALDQLVSITNSNFCSRNWEDDSKMIDDLIIRLINIYFSKYYTPDVDIIAETTVGLDASVLGLMTDIDMKYKLNSLSGSVESGFGLERYALEATSVMDDMSNESPSPTSDDSNGLVGMYRHKKAVYGLLDLESKNQVRTIGIWGFQGVGKTTLAECVFDDISSHFQHYCFLTNANKIYQNRISPSLLKHLTRRRSSEDIFDAIKPSLVNRKVLFVVDGVDATYNEQFNDAMKVTRWLGPGSRIIMTSRFKSSLKFGGAKYEMECLRYEEALQLFSLYAFKKTYPLIGFELFSIRAVHFAGRLPLSLKVLGSFLYDKDEESWKRTLHKLEASQDNDRRYVSNYIGAGEYLPRRQIELEQYVSPDEEEYSPSYIMSL | soluble |
| MASSTVPVSAAGSANETPEIPDNVGDWLRGVYRFATDRNDFRRNLILNLGLFAAGVWLARNLSDIDLMAPQPGV | not soluble |
| MASYRVAALYRFTRFEDPAAIQGPLAALCCSLGVKGTLLLAREGINGTIAGEDAAIEAVLAHIRALPGCADLTPKTAWAERMPFYRMKVRLKKEIVTLGEPDLDPTDAGTYVEPADWNALISDPDVLVIDTRNAYEVAVGRFEGAIDPQTASFADFPAWFRDWRKSVEAQRGPEAPLKVAMYCTGGIRCEKSTAFLKAEGVEQVFHLKGGVLDYLEQIPQPESLWRGECFVFDERVSVGHGLVKGDHVLCRGCRMPVSPQDQASPLYVEGVACPACHDQRNEEQKARAAERHRQVLHCEALGVDHVGATLPTKIDLEHHHHHH | not soluble |
| MATALNPGRTSAPTPEAAPKLRFDARRYLGTPAVRRIKDEVEIELADRAYLPDLNDLKRDWVASVAAPAFRVLARNRATPPRAFASIGTGSGVDALAAIELLGAEIVGITDLFEEVVATAARNVRGNVRPEAGITLHAGAGDLLIPLAPAGVKFDVIYENLPNLPVDDSRKIEADKTSAAFLAPRSEAIPVFITDWLLTMHYLALVQARDALTPDGVVLSTVGARVPLDVLAQMSRAAGLVPRVLTYGWKVQADADDVISTYANWERQGLGPFRFYAADALEAAFANLDPGEAGANAATIEASLAGEQLGAVAAWEAHRSGLRIGHTYVVLQSGLGLEHHHHHH | soluble |
| MATAPYGVRLLVGAATVAVEETMKLPRTILMYPMTLASQAAHVVMRFQQGLAELVIKGDNTLETLFPPKDEKPEWATFDEDLPDALEGTSIPLLGLSDASEAKNDDRRSDGRFALYSVSDTPETTTASRSADRSTNPKTAKHPKSAAKPTVPTPAVAAELDYPALTLAQLRARLHTLDVPELEALLAYEQATKARAPFQTLLANRITRATAK | not soluble |
| MATIDLQKKSVKIVLEKKQLTKVTARVGLVLDITGSMRPLYKNGTVQNVVERILAVADQFDDNGLLDVWVYDNEFPRLKPVSEKDFPGYVDREILNNDRLHKFGRNDEPPVMKDVLRNMLRRNRARILLSLFLSMTGAVKSQSNRLIEASSDKPVFWQFVGIGNGNFDFLNKLDTLEGRVIDNTNFLHIEEIDRISDDELYDALLAEFPFWLKEAKEKGIVREQEPPAEKPKKKGFFSRLFSKLEHHHHHH | soluble |
